Test results as given in the supplement of paper PMC10567573.
± gives the standard deviation.

Test: protein stability index of a GFP-peptide fusion (GPS, HEK-293T) (PSI 1-6); higher = more stable
[1] = treatment: DMSO, c terminus: a fixed tail appended
[2] = treatment: MLN4924 1 uM, 8 h, c terminus: a fixed tail appended
[3] = treatment: DMSO, c terminus: native
[4] = treatment: MLN4924 1 uM, 8 h, c terminus: native
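Further: 24-mer peptide tiles fused after GFP, lentivirally expressed, FACS-sorted into six equal bins by GFP/DsRed ratio, decoded by Illumina sequencing, PSI is the read-weighted mean bin number.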

Row | Sequence | protein stability index [1] | protein stability index [2] | protein stability index [3] | protein stability index [4]
1 | QLAQLRCEMEQQSQEYQILLDVKT [KRT16] | 3.34 ± 0.076 | 3.55 ± 0.28 | – | –
2 | IRRPRLYLLQWLKSDKALMMLFND [PLK2] | 2.58 ± 0.48 | 2.75 ± 0.26 | – | –
3 | IRERILGPSHPDTSYYIRYRGAVY [FEM1C] | 2.22 ± 0.27 | 2.1 ± 0.34 | – | –
4 | CMYRHALPPGFVLKKDKKKEEKED [ZC3H15] | 4.58 ± 0.21 | 4.67 ± 0.15 | – | –
5 | SPESSRGQCGENLAWASYDQTGKE [GLIPR2] | 4.8 ± 0.21 | 4.73 ± 0.27 | – | –
6 | YSLAPNTPINQNVSLHQASLGGCS [NFE2L1] | 3.54 ± 0.1 | 3.65 ± 0.18 | – | –
7 | CFKAKLHRKRGSQPPDMASALTDR [RSPH3] | 3.66 ± 0.26 | 3.95 ± 0.28 | – | –
8 | KPPPNSEGEQGPNGSQNSSYSQS [CCNC] | – | – | 5.36 ± 0.24 | 5.41 ± 0.27
9 | MDDERYFNEMSAQGLRPRTVSSPI [CCDC6] | 4.28 ± 0.29 | 4.16 ± 0.14 | – | –
10 | RVPSFESFEDDCSQSLCLNKPTMS [ETS2] | 4.6 ± 0.16 | 4.55 ± 0.16 | – | –
11 | EDSINNSLVQLQASHQQQVLPPRQ [MYBL2] | 4.93 ± 0.14 | 4.72 ± 0.19 | – | –
12 | IVLGPYHVKFRSLSMVSECLFSLI [MCOLN1] | 2.94 ± 0.68 | 2.78 ± 0.42 | – | –
13 | DNLLQEMLLGGSPSDAPHAHHPLH [HNF4A] | 3.97 ± 0.49 | 4 ± 0.14 | – | –
14 | GRPPDPADWAVMDVVNYFRTVGFE [SAMD13] | 2.57 ± 0.25 | 2.78 ± 0.3 | – | –
15 | LFVGLYYNVIIGWSIFYFFKSFQY [SLC6A17] | – | 3.17 ± 1.5 | – | –
16 | ECVASNNVGEISVSTRLTVLREDQ [PTPRD] | 4.63 ± 0.19 | 4.54 ± 0.15 | – | –
17 | VVFPYTSKSCMRAVLEYLYTGMFT [RHOBTB2] | 2.81 ± 0.42 | 2.77 ± 1.1 | – | –
18 | EPPHNLFCAPGSWEWNELDHIMEI [SERTAD3] | 2.93 ± 0.13 | 3.07 ± 0.25 | – | –
19 | SPEKFQIEANFPRRVLPCIPSEEW [FAF2] | 3.75 ± 0.12 | 3.79 ± 0.29 | – | –
20 | SKYADLSDAANRNHEALRQAKQEM [PRPH] | 4.77 ± 0.064 | 4.89 ± 0.14 | – | –
21 | HCVTSDPATSPLVLAIPRRLRVEL [TRIM35] | 2.3 ± 0.37 | 2.13 ± 0.44 | – | –
22 | MTSNPITWGQIKKTTQEAEKLLER [CDK11A] | 4.55 ± 0.24 | 4.31 ± 0.25 | – | –
23 | CDVWSIGCILFEYYRGFTLFQTHE [CLK3] | 3.1 ± 0.48 | 3.25 ± 0.44 | – | –

Row | Sequence | protein stability index [1] | protein stability index [2] | protein stability index [3] | protein stability index [4]
24 | ALTNIQNCMAEKRETVLIETQLKA [C8orf76] | 3.19 ± 0.34 | 3.09 ± 0.47 | – | –
25 | KKSNSPGTASSGSSRLPQPSGAGK [ZC2HC1A] | 5.25 ± 0.19 | 5.23 ± 0.14 | – | –
26 | ICRVFSTSPAKDSLSFEDFLDLLS [CIB1] | 2.34 ± 0.25 | 2.2 ± 0.1 | – | –
27 | MMEEIDRFQDPAAASISDGDCDAR [FAM219A] | 5.38 ± 0.16 | 5.42 ± 0.11 | – | –
28 | STEDMERALSEYLAVFARCLAGCE [P3H4] | 3.59 ± 0.2 | 3.37 ± 0.32 | – | –
29 | RGREAGPPQPMVPLAVENQAGGEG [PBXIP1] | 5.27 ± 0.38 | 5.25 ± 0.16 | – | –
30 | LRPSYTGLSSSSARFLSRSIPSLQ [CDC14A] | 3.04 ± 0.38 | 2.85 ± 0.29 | – | –
31 | QVDSLRPASFPTWGCDLGVVTRVV [BRF1] | 2.66 ± 0.11 | 2.5 ± 0.18 | – | –
32 | EREPVRGQCLDSTDQLEFTVEPRL [RTN2] | 4.78 ± 0.2 | 4.71 ± 0.2 | – | –
33 | CAACKTPIRNRAFYMEEGVPYCER [PDLIM7] | 2.93 ± 0.3 | 3.38 ± 0.18 | – | –
34 | QQKEEEEEMAVVPQGLFRGGKSGE [CHGA] | 5.52 ± 0.28 | 5.63 ± 0.12 | – | –
35 | EKTGPQLTSRIKGDWIGLYRHFLK [DENND6A] | 2.15 ± 0.34 | 2.08 ± 0.21 | – | –
36 | GLTDVSQIITVTVQTGLDQYQQVP [IQUB] | 2.26 ± 0.085 | 2.47 ± 0.23 | – | –
37 | ADRLVRVHGDPAVWWVSQFVKYLI [FUT8] | 2.25 ± 0.35 | 2.11 ± 0.26 | – | –
38 | SKIGFGILLSKEPDGVWAYNRGEH [SMAD6] | 2.43 ± 0.25 | 2.71 ± 0.15 | – | –
39 | AEGAVPETQTLTGWSKGFIGMHRE [RHOBTB1] | 4.09 ± 0.12 | 4 ± 0.23 | – | –
40 | PTSPVQGTTPQISPSTLIGSLRTL [HDAC6] | 3.77 ± 0.22 | 3.79 ± 0.26 | – | –
41 | DIAAMTNSLFIDRQKCMAHRTRYP [TEKT4] | 2.45 ± 0.24 | 2.57 ± 0.19 | – | –
42 | NSAHHCVVEVENFLFVLGGEDQWN [KLHL14] | 2.12 ± 0.27 | 2.07 ± 0.3 | – | –
43 | CLIQKAQWTVGKLNCPFCGARLGG [RNF180] | 2.15 ± 0.18 | 2.79 ± 0.36 | – | –
44 | KQRGYFFLDERLYCESHAKARVKP [PDLIM4] | 2.81 ± 0.64 | 3.11 ± 0.38 | – | –
45 | SQKNEKALTNIQNCMAEKRETVLI [C8orf76] | 3.54 ± 0.29 | 3.69 ± 0.19 | – | –
46 | HCMAPPLLHLDLKPANILLDAHYH [RIPK4] | 2.27 ± 0.23 | 2.38 ± 0.22 | – | –

Row | Sequence | protein stability index [1] | protein stability index [2] | protein stability index [3] | protein stability index [4]
47 | LRKKILKIRHGWEDVTKINKTEIC [STEAP1] | 2.29 ± 0.47 | 2.56 ± 0.48 | – | –
48 | AQGFAADVRLMFSNCYKYNPPDHE [BRD3] | 2.99 ± 0.31 | 2.8 ± 0.39 | – | –
49 | KQDLVPGSPDDSHPKDGPSPGGTL [DLC1] | 5.53 ± 0.25 | 5.37 ± 0.43 | – | –
50 | EELMLVHSLEYIDLMETTQYMNEG [HDAC6] | 3.5 ± 0.2 | 3.41 ± 0.3 | – | –
51 | AAVSRKKKRRMGTYSLVPKKKTKV [EHMT1] | 4.29 ± 0.32 | 4.32 ± 0.24 | – | –
52 | KTMPKSVVGLHAASKDPREVREAR [EHMT1] | 4.78 ± 0.09 | 4.86 ± 0.26 | – | –
53 | TWYLKTIDICHDHFGWYLGWGDCV [DHCR7] | 3.01 ± 0.34 | 3.1 ± 0.53 | – | –
54 | QYLALPERAELAASLGLTQTQVKI [DLX1] | 2.95 ± 0.33 | 3.03 ± 0.22 | – | –
55 | TAKDNGEAEDQEEKEDAEKENIEK [SRPK2] | 5.58 ± 0.12 | 5.67 ± 0.25 | – | –
56 | ERAELAASLGLTQTQVKIWFQNKR [DLX1] | 3.59 ± 0.34 | 3.87 ± 0.44 | – | –
57 | FIEIELDRQELTYQELLRVCCCEL [ANKRD40] | 2.67 ± 0.61 | 2.67 ± 0.66 | – | –
58 | GQLEFRALLFIPRRAPFDLFENKK [HSP90AB1] | 2.22 ± 0.22 | – | – | –
59 | TGAACRLVEAVLSGEVLNGAAVVR [HDAC6] | 2.13 ± 0.35 | 2.27 ± 0.28 | – | –
60 | YRAITSAYYRGAVGALLVYDIAKH [RAB11A] | 2.43 ± 0.51 | 2.16 ± 0.33 | – | –
61 | FSQYGRIITSRILVDQVTGVSRGV [ELAVL3] | 2.23 ± 0.26 | 2.33 ± 0.23 | – | –
62 | MCLSPDRKMEVEELSPLALGRFSL [CDC25B] | 2.57 ± 0.19 | 2.71 ± 0.24 | – | –
63 | RAPHKESTLPRSGSSGGQQPSGMK [CHCHD6] | 4.96 ± 0.58 | 5.05 ± 0.46 | – | –
64 | FSAPDPPRPRPVSLSLRLPHQPVT [SMTNL2] | 3.77 ± 0.12 | 3.91 ± 0.27 | – | –
65 | RPSFNRTPIPWLSSGEPVDYNVDI [MYOZ1] | 3.57 ± 0.5 | 3.66 ± 0.39 | – | –
66 | SQMFPSSKARTKSLLGDDVFSTMA [FBF1] | 2.89 ± 0.26 | 2.97 ± 0.21 | – | –
67 | GRVVPESQCQMETKPLAIHPCGDK [ADAMTSL2] | 4.53 ± 0.17 | 4.71 ± 0.46 | – | –
68 | FDVDHGICIMDAENITTVSVIKDH [WDR88] | 3.27 ± 0.2 | 3.25 ± 0.25 | – | –
69 | EVTADDRKVKSTITLDGGVLVHVQ [FABP4] | 3.7 ± 0.37 | 3.99 ± 0.17 | – | –

Row | Sequence | protein stability index [1] | protein stability index [2] | protein stability index [3] | protein stability index [4]
70 | ASLGREESRAPSPLLHKDSASLEV [CBY2] | 4.79 ± 0.31 | 4.85 ± 0.19 | – | –
71 | GRRAATALLWLSCSIALLRALATS [GNAS] | 2.26 ± 0.37 | 2.02 ± 0.24 | – | –
72 | FPAEERARVLDRRGCSRVEGGGTS [ANKRD9] | 4.42 ± 0.2 | 4.53 ± 0.28 | – | –
73 | VPKDQRLQAIKAAIMLLPDENREV [DLC1] | 3.82 ± 0.18 | 3.85 ± 0.42 | – | –
74 | LPQDEGGGGYSSVRYSDCCERVVI [KCNA4] | 2.41 ± 0.3 | 2.77 ± 0.53 | – | –
75 | LLLLQVSSSYAGQFRVIGPRHPIR [MOG] | 2.53 ± 0.51 | 2.04 ± 0.22 | – | –
76 | PGGLVGSADVVSPSGHSDAQTLAM [PPFIA4] | 4.57 ± 0.22 | 4.43 ± 0.93 | – | –
77 | GVPVQPVLIRYPNSLDTTSWAWRG [LPCAT4] | 2.28 ± 0.26 | 2.34 ± 0.31 | – | –
78 | SPTIIFDNWIPLLWCANILGYAVS [DHCR7] | 3.36 ± 0.13 | 3.48 ± 0.42 | – | –
79 | METNGSTEGSRSRSRSLDIQPSSE [SPAG8] | 5.54 ± 0.33 | 5.35 ± 0.064 | – | –
80 | NASTLRTINIKCHVHDPHGQVIWG [FBXO39] | 2.17 ± 0.18 | 2.21 ± 0.21 | – | –
81 | YDPRFNSWIQLPPMQERRASFYAC [KLHL14] | 2.14 ± 0.27 | 2.22 ± 0.17 | – | –
82 | GFSSIPDAFWWAVVTMTTVGYGDM [KCNA3] | 3.06 ± 0.47 | 3.25 ± 0.27 | – | –
83 | DPHTKKALEAHCRADELASQDGR [PPP2R5C] | – | – | 5.16 ± 0.29 | 5.3 ± 0.12
84 | DSCDRLTQSWSSQSSFNSLQRVPS [ETS1] | 3.99 ± 0.24 | 4.07 ± 0.23 | – | –
85 | KVFEELLLDADWSINAGSWMWLSC [CRY1] | 2.28 ± 0.49 | 2.58 ± 0.27 | – | –
86 | VVTMTTVGYGDMHPVTIGGKIVGS [KCNA3] | 2.33 ± 0.4 | 2.37 ± 0.45 | – | –
87 | LWLRPEVHTKEQILELLVLEQFLA [ZNF396] | 2.54 ± 0.5 | 2.73 ± 0.49 | – | –
88 | YQQLKLEGPGEQETKLDLISKGEE [SLC29A1] | 5.25 ± 0.28 | 5.28 ± 0.13 | – | –
89 | EPEKIYAMPDPTVPDSDIKALTTL [ESRRG] | 4.46 ± 0.15 | 4.6 ± 0.2 | – | –
